Six molecules from patent publication US11667697 (VANDERBILT UNIVERSITY, dated 2023) can be followed below.

The term EC50 denotes the concentration giving half of the maximal effect.

Assay [1] has as its target T1, VACV H3 protein (vaccinia virus, UniProt P07240 1-278).
T1 sequence: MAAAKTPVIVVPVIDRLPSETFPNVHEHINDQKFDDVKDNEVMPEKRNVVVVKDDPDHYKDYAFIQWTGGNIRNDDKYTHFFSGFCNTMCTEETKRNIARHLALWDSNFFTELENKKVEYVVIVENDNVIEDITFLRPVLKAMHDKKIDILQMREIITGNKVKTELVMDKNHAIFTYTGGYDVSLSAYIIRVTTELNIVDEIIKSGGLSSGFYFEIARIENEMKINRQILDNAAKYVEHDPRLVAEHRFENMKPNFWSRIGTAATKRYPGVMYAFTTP
As to the kind of experiment: cell-based or functional assay.

Assay [2] has as its target T1, VACV H3 protein. As to the kind of experiment: lysate ELISA. In general terms: An ELISA detects its analyte on a solid surface through an enzyme-linked reagent.
Assay [3] deals with T1, VACV H3 protein. As to the kind of experiment: purified antigen ELISA.
The target in assay [4] is T2, VACV D8 protein (vaccinia virus, UniProt P04195 1-261).
T2 sequence: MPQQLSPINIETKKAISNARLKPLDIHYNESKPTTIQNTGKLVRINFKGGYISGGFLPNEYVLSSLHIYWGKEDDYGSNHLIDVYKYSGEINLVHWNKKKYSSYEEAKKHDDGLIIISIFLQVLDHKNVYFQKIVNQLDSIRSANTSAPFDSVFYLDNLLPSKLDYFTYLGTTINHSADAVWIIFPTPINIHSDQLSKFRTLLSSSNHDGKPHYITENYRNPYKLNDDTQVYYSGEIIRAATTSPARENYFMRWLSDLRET
Description: cell-based or functional assay.

The target of assay [5] is T2, VACV D8 protein. Description: lysate ELISA.
The target of assay [6] is T2, VACV D8 protein. Description: purified antigen ELISA.
Assay [7] concerns the target T2, VACV D8 protein. As to the kind of experiment: antigen ELISA/array/BLI.

B1: MPXV-79 (antibody, V domains shown)
VH: QVQLVQSGAEVKKPGASVKVSCKASGYSFRSNGISWVRQAPGQGFEWLGWIAAYNGDTKYVQKFQGRLTMTTDTSTDTAYMELWSLRSDDTAVYYCARDPKLGRKGSAFDIWGQGTLVIVSS
VL: EIVLTQSPATLSLSPGGRATLSCRASQSVGNYLTWYQQKPGQAPRLLIFDGSTRATGIPARFSGSGSGTDFTLTISSLEPEDFAVYYCLQRSDLYTFGQGTKVDIK
notes: human IgG1, anti-H3
For the molecule B1, in the assay with VACV H3 protein [1], the “PRNT Emax, VACV MV+C'” value came to 62% and the “PRNT IC50, VACV MV+C'” value turned out to be 4.7 µg/mL. In addition, a half-maximal response in the assay with VACV H3 protein [2] (EC50) required 4 ng/mL. Moreover, in the assay with VACV H3 protein [3], the midpoint of the response, the EC50, lay at 0.06 µg/mL.

B2: VACV-315 (antibody, V domains shown)
VH: EVQLLESGGGLVQPGGSLKLSCAASGFIFSNYAMGWVRQAPGKGLEWVSALSASDGVTSYADSVKGRFTISRDNSKNTMYLQMNRLRTEDTAIYFCAKGRARVNNIYRYFDHWGQGTLVTVSS
VL: QSVLTQPASVSGSPGQSITISCTGTSSDVGAYTFVSWYQHHPGKAPKLIIYEVSNRPSGVSDRFSGSKSGNTASLTISGLQAEDEADYYCNSYTTTSPWVFGGGTQLTVL
notes: human IgG1, anti-H3
On to B2, for which the “PRNT Emax, VACV MV+C'” value with VACV H3 protein [1] was found to be 72%. Also, in the assay with VACV H3 protein [1], the “PRNT IC50, VACV MV+C'” value was 2.2 µg/mL. Moreover, the results for the EC50 with VACV H3 protein [2] and with VACV H3 protein [3] were 2 ng/mL and 0.2 µg/mL, respectively.

B3: VACV-304 (antibody, V domains shown)
VH: EVQLVESGGGLVQPGGSLRLSCVVSGFTFSNYWMSWVRQAPGKGLEWVANIKQDGSKKYYVDSVTGRFTISRDNAKNSLYLQMNSLRAEDTAVYYCATLNLELAVDAISEALKWGQGTLVTVSS
VL: SYELTQPPSVSVSPGQTARITCSGDALPKQFAYWYQQKPGQAPVVMIYKDSERPSGIPERFSGSSSGTTVTLTISGVQAEDEADYYCQSVDNSGTYEVFGGGTQLTVL
notes: human IgG1, anti-D8
As for B3, in the assay with VACV D8 protein [4], the “PRNT Emax, VACV MV+C'” value came to 69% and the “PRNT IC50, VACV MV+C'” value stood at 0.02 µg/mL. In the assay with VACV D8 protein [5], the midpoint of the response, the EC50, lay at 0.04 µg/mL. In the assay with VACV D8 protein [6], this molecule showed a 50% effective concentration (EC50) of 0.05 µg/mL.

B4: VACV-77 (antibody, V domains shown)
VH: QVQLQESGPGLVKPSETLSLTCTVSGGSMSSYFWSWIRQPPGKGLEWIGYISYSGGTNYNPSLKSRVTISVDTSKNQFSLKLTSVTAADTAVYYCAREDRGSPDYWGQGTLVTVSS
VL: QSVLTQPPSVSAAPGRKVTISCSGSSSNIGNNYVSWYQQLPGTAPKLLIYDNYKRPSGIPDRFSGSKSGTSATLGITGLQTGDEADYYCGTWDLSLSAGVFGGGTKLTVL
As to B4, the binding result with VACV D8 protein [7] is “binds”.

B5: VACV-249 (antibody, V domains shown)
VH: QVQLVESGPGLVKPSQTLSLTCTVSGGSISRGIYYWSWIRQPAGKGLEWIGRIYTSGSTNYNPSLKSRVTISVDTSKNQFSLKLSSVTAADTAVYYCARDGWYGWYLDLWGRGTLVTVSS
VL: EIVMTQSPATLSVSPGERATLSCRASQSVSSDLAWYQQKPGQAPRLLIYGASTRATGIPARFSGSGSGTEFTLTISSLQSEDFAVYYCQQYNNWPGTFGGGTKVDIK
notes: human IgG1, anti-D8
Consider B5, for which, in the assay with VACV D8 protein [4], the “PRNT Emax, VACV MV+C'” value came to 70% and the “PRNT IC50, VACV MV+C'” value was found to be 0.2 µg/mL. This molecule also returned an EC50 with VACV D8 protein [5] of 0.3 µg/mL. The EC50 with VACV D8 protein [6] is 2.8 µg/mL.

B6: VACV-314 (antibody, V domains shown)
VH: QVQLVQSGPGLVKPSETLSLTCTVSGGSISSYYWSWIRQPPGKGLEYIGHIYYSGGTKYNPSLRSRVTISVDTSKNQFSLKLTSVTAADTAVYYCARLAGRKPDADSWGQGTLVTVSS
VL: QPVLTQEPSLTVSPGGTVTLTCASSTGAVTSGFFPNWLQQKPGQAPRALIYSTNNKHSWTPARFSGSLLGGKAALTLSGVQPEDEAEYYCLLYYGGVVVFGGGTKLTVL
notes: human IgG3, anti-H3
For B6, in the assay with VACV H3 protein [1], the “PRNT Emax, VACV MV+C'” value is 74% and the “PRNT IC50, VACV MV+C'” value is 0.1 µg/mL. The molecule also gave an EC50 in the assay with VACV H3 protein [2] of 3 ng/mL. Also, the EC50 with VACV H3 protein [3] came to 0.1 µg/mL.
